In patent US20240317847A1 (Bayer, published 2024):
One block for each binder: values may come before it.

Experiments:
[1] = target: T1, human IL-11 (Invigate, e.g., lot #C121021-19) (human, UniProt P20809 22-199); test: SPR, Biacore 8K; antibody captured on anti-human IgG Fc chip, IL-11 analyte 0-50 nM, 1:1 fit
T1 construct: Bought protein; also called hIL-11; hIL11
T1 sequence: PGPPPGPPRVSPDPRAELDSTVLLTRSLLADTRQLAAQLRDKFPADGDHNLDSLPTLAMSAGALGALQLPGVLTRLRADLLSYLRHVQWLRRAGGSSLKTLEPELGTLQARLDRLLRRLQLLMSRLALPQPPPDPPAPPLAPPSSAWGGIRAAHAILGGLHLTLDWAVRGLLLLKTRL

[2] = target: T2, murine IL-11 (Invigate, e.g., lot #C210819-09) (mouse, UniProt P47873 22-199); test: as above
T2 construct: Bought protein; biotinylated where captured on streptavidin plates; also called mIL-11; mIL11
T2 sequence: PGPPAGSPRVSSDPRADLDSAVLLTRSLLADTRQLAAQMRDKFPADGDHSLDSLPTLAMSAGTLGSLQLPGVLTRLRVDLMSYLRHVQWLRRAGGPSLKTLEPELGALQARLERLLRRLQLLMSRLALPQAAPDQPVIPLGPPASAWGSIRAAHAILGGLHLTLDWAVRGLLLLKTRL

human IL-11 [3] = target: T3, human IL-11 (human, UniProt P20809 22-199); test: Di-complex ELISA, murine IL11RA-Fc binding to immobilized hIL-11, competition
T3 construct: Invigate recombinant protein; biotinylated when immobilized in the Di-complex ELISA; also called hIL11; hIL-11
T3 sequence: T1 sequence

murine IL-11 = target: T4, murine IL-11 (mouse, UniProt P47873 22-199); test: Di-complex ELISA, competitor canine IL11RA-Fc on coated IL-11;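 on Efficacy (%): signal drop relative to signal at lowest antibody concentration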
T4 construct: Invigate, e.g. lot #C210819-09; biotinylated where coated in the ELISA; also called mIL-11; mIL11
T4 sequence: T2 sequence

human IL-11 [4] = target: T3, human IL-11; test: Tri-complex ELISA, hIL-11 + mIL-11Ra-Fc + hgp130-Fc, inhibition of complex formation; Tri-complex ELISA (IL-11/IL-11Ra/gp130 formation)
Procedure: In the Tri-complex ELISA format IL-11 antibodies are tested for their ability to inhibit the formation of a complex consisting of murine or human gp130-Fc fusion protein, with murine or human IL-11, and a murine IL11RA-Fc fusion protein. The assay format was adapted according to FIG. 18 (a, b), depending on whether murine or human IL-11 IgG antibodies were tested.
The assay was performed using High Binding microtiter plates (Greiner, #781077). In a first step, 25 μl of goat anti human IgG (Sigma, #12136), diluted 1:1000 in coating buffer (Candor, #121125) was coated on the plate at 4° C. overnight. Next day, the plate was washed one time with 50 μl PBST and then blocked with 50 μl SmartBlock (Candor, #113125) for one hour at room temperature (RT). […] After three additional washes of the coated and blocked microtiter plate with PBS-T, 25 μl of each mixture were added and the assay plate was incubated for one hour at room temperature. After three additional washes, anti-mouse-gp130 biotinylated antibody (R&D, #BAF468) or anti-human gp130 biotinylated antibody (R&D, #BAF228), both 1:1000 in 10% SmartBlock PBS-T, was added and incubated for 1 hour at RT. After three additional washes, a Streptavidin-Peroxidase conjugate (Sigma, #S5512) 1:1000 in SmartBlock PBS-T was added and incubated for one hour at room temperature. […] Then, the fluorescence was measured with a plate reader at 535/595 nm. […]

B3: TPP-18068 (antibody, mouse IgG1)
heavy: EVQLLESGGGLVQPGGSLRLSCAASGFTFSSYGMHWVRQAPGKGLEWVSVISYDGSYKYYADSVKGRFTISRDNSKNTLYLQMNSLRAEDTAVYYCAAGVPDYWGQGTLVTVSSAKTTPPSVYPLAPGSAAQTNSMVTLGCLVKGYFPEPVTVTWNSGSLSSGVHTFPAVLQSDLYTLSSSVTVPSSTWPSETVTCNVAHPASSTKVDKKIVPRDCGCKPCICTVPEVSSVFIFPPKPKDVLTITLTPKVTCVVVDISKDDPEVQFSWFVDDVEVHTAQTQPREEQFNSTFRSVSELPIMHQDWLNGKEFKCRVNSAAFPAPIEKTISKTKGRPKAPQVYTIPPPKEQMAKDKVSLTCMITDFFPEDITVEWQWNGQPAENYKNTQPIMDTDGSYFVYSKLNVQKSNWEAGNTFTCSVLHEGLHNHHTEKSLSHSPGK
light: QSVLTQPPSASGTPGQRVTISCTGSSSNIGAGYDVHWYQQLPGTAPKLLIYSNNERPSGVPDRFSGSKSGTSASLAISGLRSEDEADYYCAAWDDSLNGPVFGGGTKLTVLGQPKSSPSVTLFPPSSEELETNKATLVCTITDFYPGVVTVDWKVDGTPVTQGMETTQPSKQSNNKYMASSYLTLTARAWERHSSYSCQVTHEGHTVEKSLSRADCS
notes: mIgG1, Lambda
Efficacy (%) (murine IL-11): 64.2%
IC50 (murine IL-11): 2.9 nM

B4: TPP-18068 (antibody, mouse IgG1)
heavy: B3 heavy
light: B3 light
notes: mIgG1, Lambda
IC50 (human IL-11 [4]): 1700 nM

Second part, the binder after the results:

Kd [1]: 5.2 nM
Kd [2]: 12 nM
B1: TPP-18087 (antibody, mouse IgG1, V domains shown)
VH: EVQLLESGGGLVQPGGSLRLSCAASGFTFSHYDMNWLRQAPGKGLEWVGVISYDGSNKFYADFVKGRFTISRDNSKNTLYLQMNSLRAEDTAVYYCARTPGSHFDYWGQGTLVTVSS
VL: QSVLTQPPSASGTPGQRVTISCSGSSSNIGNNAVNWYQQLPGTAPKLLIYYDDLLPSGVPDRFSGSKSGTSASLAISGLRSEDEADYYCSAWDDSLNGVVFGGGTKLTVLG
notes: mIgG1, Lambda

IC50 (human IL-11 [3]): 1.6 nM
B2: TPP-29697 (bispecific antibody, IgG1)
chain 1: QVQLVESGGGVVQPGRSLRLSCAASGFTFSHYDMHWVRQAPGKGLEWVAVISYHGSVKFYADSVKGRFTISRDNSKNTLYLQMNSLRAEDTAVYYCARTPGFHFDYWGQGTLVTVSSGGGGSGGGGSGGGGSQSVLTQPPSASGTPGQRVTISCSGSSSNIGSNYVSWYQQLPGTAPKLLIYYDDLRPSGVPDRFSGSKSGTSASLAISGLRSEDEADYYCSAWDDSLSGVVFGGGTKLTVLGGGGSGGGGSGGGGSGVECPPCPAPPVAGPSVFLFPPKPKDTLMISRTPEVTCVVVGVSHEDPEVKFNWYVDGVEVHNAKTKPREEQYNSTYRVVSVLTVLHQDWLNGKEYKCKVSNKQLPSPIEKTISKAKGQPREPQVYTLPPCRDELTKNQVSLWCLVKGFYPSDIAVEWESNGQPENNYKTTPPVLDSDGSFFLYSKLTVDKSRWQQGNVFSCSVMHEALHNHYTQKSLSLSPGK
chain 2: EVQLLESGGGLVQPGGSLRLSCAASGFTFSSYGMHWVRQAPGKGLEWVAVISYDGSYKYYADSVKGRFTISRDNSKNTLYLQMNSLRAEDTAVYYCAAGVPDYWGQGTLVTVSSGGGGSGGGGSGGGGSQSVLTQPPSASGTPGQRVTISCSGSSSNIGSDYDVHWYQQLPGTAPKLLIYSNEERPSGVPDRFSGSKSGTSASLAISGLRSEDEADYYCSAWDSSLSGPVFGGGTKLTVLGGGGSGGGGSGGGGSGVECPPCPAPPVAGPSVFLFPPKPKDTLMISRTPEVTCVVVGVSHEDPEVKFNWYVDGVEVHNAKTKPREEQYNSTYRVVSVLTVLHQDWLNGKEYKCKVSNKQLPSPIEKTISKAKGQPREPQVCTLPPSRDELTKNQVSLSCAVKGFYPSDIAVEWESNGQPENNYKTTPPVLDSDGSFFLVSKLTVDKSRWQQGNVFSCSVMHEALHNHYTQKSLSLSPGK
notes: scFv-kih-hIgG1 with Fc-silencing mutations; bispecific comprising CDRs of TPP-29528 and TPP-29519
